Measurements from publication PMC7069705.

Biological target: APC (full-length; APC-TMR when labeled) (Mus musculus, UniProt Q61315 1-2845)
Test: single-molecule TIRF-M co-diffusion on microtubules

Sequence of APC (full-length; APC-TMR when labeled) (Q61315 whole entry, the tested form may be a part): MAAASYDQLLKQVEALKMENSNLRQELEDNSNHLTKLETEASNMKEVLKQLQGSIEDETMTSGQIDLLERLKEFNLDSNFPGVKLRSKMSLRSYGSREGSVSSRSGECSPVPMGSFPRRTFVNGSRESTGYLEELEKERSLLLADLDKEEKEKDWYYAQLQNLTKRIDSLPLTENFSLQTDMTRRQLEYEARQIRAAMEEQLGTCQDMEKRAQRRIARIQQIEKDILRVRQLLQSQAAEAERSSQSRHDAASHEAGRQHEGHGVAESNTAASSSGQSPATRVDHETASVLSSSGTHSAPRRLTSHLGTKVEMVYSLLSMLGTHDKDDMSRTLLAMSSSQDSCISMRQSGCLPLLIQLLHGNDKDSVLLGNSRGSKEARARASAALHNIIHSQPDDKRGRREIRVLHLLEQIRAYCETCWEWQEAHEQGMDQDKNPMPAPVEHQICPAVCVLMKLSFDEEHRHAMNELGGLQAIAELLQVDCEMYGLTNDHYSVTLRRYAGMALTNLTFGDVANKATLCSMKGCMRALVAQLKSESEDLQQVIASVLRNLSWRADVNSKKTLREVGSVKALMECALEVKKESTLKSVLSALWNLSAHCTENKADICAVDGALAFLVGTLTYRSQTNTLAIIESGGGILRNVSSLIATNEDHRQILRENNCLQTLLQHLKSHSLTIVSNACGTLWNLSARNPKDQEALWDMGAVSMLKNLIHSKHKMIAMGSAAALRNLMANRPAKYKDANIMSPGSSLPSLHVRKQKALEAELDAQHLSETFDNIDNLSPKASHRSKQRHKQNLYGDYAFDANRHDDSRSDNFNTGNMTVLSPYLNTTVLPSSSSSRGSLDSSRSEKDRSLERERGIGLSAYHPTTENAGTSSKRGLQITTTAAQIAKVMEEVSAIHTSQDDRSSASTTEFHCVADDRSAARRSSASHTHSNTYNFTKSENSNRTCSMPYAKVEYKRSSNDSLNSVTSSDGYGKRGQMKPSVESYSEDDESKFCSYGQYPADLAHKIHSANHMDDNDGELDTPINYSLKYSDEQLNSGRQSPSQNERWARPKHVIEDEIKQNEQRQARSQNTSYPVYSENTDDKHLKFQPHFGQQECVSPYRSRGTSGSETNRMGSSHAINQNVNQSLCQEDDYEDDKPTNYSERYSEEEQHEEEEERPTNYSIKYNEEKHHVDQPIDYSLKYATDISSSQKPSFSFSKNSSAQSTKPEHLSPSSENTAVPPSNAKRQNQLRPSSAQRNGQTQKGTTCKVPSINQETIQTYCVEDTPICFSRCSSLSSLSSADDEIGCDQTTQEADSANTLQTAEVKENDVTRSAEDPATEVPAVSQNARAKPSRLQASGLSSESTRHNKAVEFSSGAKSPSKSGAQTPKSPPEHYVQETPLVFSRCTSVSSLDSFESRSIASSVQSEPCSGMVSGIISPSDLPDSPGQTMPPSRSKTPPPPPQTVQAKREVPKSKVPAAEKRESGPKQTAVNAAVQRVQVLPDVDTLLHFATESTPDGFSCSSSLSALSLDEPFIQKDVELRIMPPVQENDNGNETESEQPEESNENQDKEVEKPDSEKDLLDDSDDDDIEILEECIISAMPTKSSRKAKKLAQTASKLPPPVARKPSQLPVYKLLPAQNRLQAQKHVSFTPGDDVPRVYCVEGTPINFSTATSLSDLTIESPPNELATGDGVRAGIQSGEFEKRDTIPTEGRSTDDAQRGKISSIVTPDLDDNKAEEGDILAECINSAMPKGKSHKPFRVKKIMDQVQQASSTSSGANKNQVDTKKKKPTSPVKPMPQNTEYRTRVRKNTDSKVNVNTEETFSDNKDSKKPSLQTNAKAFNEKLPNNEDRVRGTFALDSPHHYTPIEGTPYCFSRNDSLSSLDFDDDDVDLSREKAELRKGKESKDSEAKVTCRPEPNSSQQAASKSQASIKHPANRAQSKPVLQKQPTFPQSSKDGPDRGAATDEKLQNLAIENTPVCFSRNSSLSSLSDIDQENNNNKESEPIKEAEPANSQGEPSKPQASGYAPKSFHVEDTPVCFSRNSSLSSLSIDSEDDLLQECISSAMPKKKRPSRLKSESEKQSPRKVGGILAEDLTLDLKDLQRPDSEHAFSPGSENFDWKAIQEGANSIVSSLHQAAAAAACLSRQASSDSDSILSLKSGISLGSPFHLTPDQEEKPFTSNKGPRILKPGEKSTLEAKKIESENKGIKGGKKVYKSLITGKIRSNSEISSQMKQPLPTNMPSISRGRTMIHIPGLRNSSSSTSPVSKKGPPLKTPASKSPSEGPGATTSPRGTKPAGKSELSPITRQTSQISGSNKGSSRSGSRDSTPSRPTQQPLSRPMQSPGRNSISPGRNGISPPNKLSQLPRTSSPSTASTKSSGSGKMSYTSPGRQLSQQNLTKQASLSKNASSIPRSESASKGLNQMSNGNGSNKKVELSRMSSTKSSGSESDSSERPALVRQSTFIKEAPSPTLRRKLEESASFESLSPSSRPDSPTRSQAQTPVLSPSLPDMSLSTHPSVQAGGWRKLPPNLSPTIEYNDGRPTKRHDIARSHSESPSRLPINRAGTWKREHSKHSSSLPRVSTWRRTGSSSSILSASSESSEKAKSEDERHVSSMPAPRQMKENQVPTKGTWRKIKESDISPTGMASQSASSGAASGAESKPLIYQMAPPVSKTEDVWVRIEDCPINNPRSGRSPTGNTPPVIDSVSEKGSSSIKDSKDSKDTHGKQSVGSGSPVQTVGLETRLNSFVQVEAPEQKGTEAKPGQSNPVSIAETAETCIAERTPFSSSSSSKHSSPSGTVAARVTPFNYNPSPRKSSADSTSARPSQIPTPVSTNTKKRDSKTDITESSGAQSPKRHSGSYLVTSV

B1: β2Btubwt (ssRNA)
RNA: GUUCCCCAGGCCAAGCAGGUUAGGGAAAGCUGAGAUGAAAGGAGGGGGUGGGGGGGCUUAAUCUGUGAAAAUACCUUGGCAGUUGAA
B1: binds.
